# Measurements reported in paper PMC10968392, “Fluorometric and Colorimetric Method for SARS-CoV-2 Detection Using Designed Aptamer Display Particles”.
# B1: C4-AdP (SpS1-C4 displayed on magnetic particle) (ssDNA)
# DNA: GAACATTGGCGTCCGTGAGCAGCTCGTGGTTGTTTGCTTGTATACTTTTGTGGTTTATCTTGTTTCTGATCACTTCCTCAAACGCCCAA
# modifications: 5' amino linkage to bead
# B2: C1-AdP (SpS1-C1 displayed on magnetic particle) (ssDNA)
# DNA: GAACATTGGCGTCCGTGAGTGAGACCATAGTCCAGCGAACTAAACCTACCCTAAAGGGCAAGGAAGACGGGCACTTCCTCAAACGCCCAA
# modifications: 5' amino linkage to bead
# Target: SARS-CoV-2 spike protein extracellular domain (ECD), biotinylated (SARS-CoV-2, UniProt P0DTC2)
# Assay: bead-based flow cytometry
# Settings: protein: commercial; chain copies: 3
row,Binder,binding result
1,B1,binds
2,B2,binds
